B1: BRD3^BD2 (second bromodomain of BRD3, residues 306-416) [not stated] / KLHDC2 substrate binding domain (KLHDC2^SBD, 15-361) [not stated] (parent)
chain 1: GPAFESYESMELACPAERSGHVAVSDGRHMFVWGGYKSNQVRGLYDFYLPREELWIYNMETGRWKKINTEGDVPPSMSGSCAVCVDRVLYLFGGHHSRGNTNKFYMLDSRSTDRVLQWERIDCQGIPPSSKDKLGVWVYKNKLIFFGGYGYLPEDKVLGTFEFDETSFWNSSHPRGWNDHVHILDTETFTWSQPITTGKAPSPRAAHACATVGNRGFVFGGRYRDARMNDLHYLNLDTWEWNELIPQGICPVGRSWHSLTPVSSDHLFLFGGFTTDKQPLSDAWTYCISKNEWIQFNHPYTEKPRLWHTACASDEGEVIVFGGCANNLLVHHRAAHSNEILIFSVQP
chain 2: GKLSEHLRYCDSILREMLSKKHAAYAWPFYKPVDAEALELHDYHDIIKHPMDLSTVKRKMDGREYPDAQGFAADVRLMFSNCYKYNPPDHEVVAMARKLQDVFEMRFAKMP

Variants of: B1
Experiment: ITC
Details: with KLHDC2 substrate binding domain (KLHDC2^SBD, 15-361); syringe: KLHDC2SBD; cell: E344G BRD3BD2-SJ46421 (ternary complex via PROTAC SJ46421); n = 2
In the case of chain 2 E39G, the Kd is reported as 0.181 µM.

Same assay, conditions: with BRD3^BD2 (second bromodomain of BRD3, residues 306-416); syringe: R56A KLHDC2SBD; cell: BRD3BD2-SJ46421 (ternary complex via PROTAC SJ46421); n = 2
chain 1 R42A gave a Kd of 0.273 µM.

— PMC11470957, “Principles of paralog-specific targeted protein degradation engaging the C-degron E3 KLHDC2” (Nature Communications, 2024)
